According to patent publication US20230398218A1 (published 2023):
Like-named read-outs stand apart in the source and are kept apart here. One block for each binder: values may come before it.

Columns and labels:
[1] = molecular target: HLA-B08.01 (human); experiment: pMHC-I complex dissociation at 37 C, radiolabeled b2m
[2] = molecular target: HLA-A03.01 (human); experiment: competition with radiolabeled reference peptide on prepared MHC class I
[3] = molecular target: HLA-A11.01 (human); experiment: as above
[4] = molecular target: T1, HLA-A01.01 (human); experiment: as above
T1 construct: in the stability assay the heavy chain is biotinylated and b2m iodine-labeled

[5] = molecular target: HLA-A03.01 (human); experiment: pMHC-I complex dissociation at 37 C, radiolabeled b2m
[6] = molecular target: T1, HLA-A01.01; experiment: as above
[7] = molecular target: HLA-A24.02 (human); experiment: competition with radiolabeled reference peptide on prepared MHC class I
[8] = molecular target: HLA-A24.02 (human); experiment: pMHC-I complex dissociation at 37 C, radiolabeled b2m
[9] = molecular target: HLA-A02.01 (human); experiment: as above
[10] = molecular target: HLA-A02.01 (human); experiment: competition with radiolabeled reference peptide on prepared MHC class I
[11] = molecular target: HLA-B08.01 (human); experiment: pMHC-I complex dissociation at 37 C, radiolabeled b2m; remark: listed apart in the source
[12] = molecular target: HLA-B08.01 (human); experiment: competition with radiolabeled reference peptide on prepared MHC class I
[13] = molecular target: T2, HLA-A*03:01 expressed in 293T or SW620 cells (human); experiment: targeted MS/MS (PRM) of peptides eluted from HLA-peptide complexes, 293T cells
T2 construct: whole, on cells; HLA of cells from which peptides were eluted for MS/MS
Method: To assess whether antigens could be processed and presented from the larger polypeptide context, peptides eluted from HLA molecules isolated from cells expressing the genes of interest were analyzed by tandem mass spectrometry (MS/MS).
For analysis of presentation of RAS neoantigens, cell lines were utilized that have RAS mutations naturally or were lentivirally transduced to express the mutated RAS gene. HLA molecules were either isolated based on the natural expression of the cell lines or the cell lines were lentivirally transduced or transiently transfected to express the HLA of interest. […] Eluted peptides were then analyzed by targeted MS/MS with parallel reaction monitoring (PRM).

- Stability (half-life (hr.)) [1]: 0 h
Binder: MANGSLLNYL

- Affinity [2]: 35.6 nM
- Affinity [3]: 536 nM
- Affinity [4]: 439 nM
- Stability (half-life (hr.)) [5]: 14.3 min
- Stability (half-life (hr.)) [6]: 13 min
Binder: MANGSLLNY (also called BTK, C481S peptide)

- Affinity [7]: 4.96 nM
- Stability (half-life (hr.)) [8]: 5.72 h
Binder: EYMANGSLL (also called BTK, C481S peptide)

- Stability (half-life (hr.)) [9]: 22.9 min
- Affinity [10]: 132 nM
Binder: LIMQLMPFGC

- Stability (half-life (hr.)) [11]: 0 h
Binder: VQLIMQLMPF (also called VOLIMQLMPF)

- Stability (half-life (hr.)) [11]: 0 h
Binder: MQLMPFGCLL

- Stability (half-life (hr.)) [11]: 0 h
Binder: IMQLMPFGCL

- Affinity [12]: 960 nM
- Stability (half-life (hr.)) [1]: 0 h
Binder: SLLNYLREM

- Stability (half-life (hr.)) [11]: 0 h
Binder: MQLMPFGCL

- binding result [13]: binds
B1: VVVGAVGVGK (peptide)
peptide: VVVGAVGVGK
notes: Endogenously processed RAS G12V peptide eluted from HLA-peptide complexes

- Stability (half-life (hr.)) [11]: 0 h
Binder: QLIMQLMPF

- Affinity [2]: 95.9 nM
- Affinity [3]: 974 nM
- Affinity [4]: 13.2 nM
- Stability (half-life (hr.)) [5]: 16.7 min
- Stability (half-life (hr.)) [6]: 52 min
Binder: YMANGSLLNY (also called BTK, C481S peptide)
